# Reference: paper PMC12069552, “Root stem cell homeostasis in Arabidopsis involves cell-type specific transcription factor complexes” (EMBO Reports, 2025)
# T1: TPL-mVenus (Arabidopsis thaliana, UniProt Q94AI7 1-1131)
# T1 construct: TOPLESS (TPL) of Arabidopsis thaliana; the CDS amplified from cDNA; FRET donor; source: N. benthamiana abaxial epidermal leaf cells, transiently expressed (β-estradiol inducible), in cells
# T1 sequence (looked up): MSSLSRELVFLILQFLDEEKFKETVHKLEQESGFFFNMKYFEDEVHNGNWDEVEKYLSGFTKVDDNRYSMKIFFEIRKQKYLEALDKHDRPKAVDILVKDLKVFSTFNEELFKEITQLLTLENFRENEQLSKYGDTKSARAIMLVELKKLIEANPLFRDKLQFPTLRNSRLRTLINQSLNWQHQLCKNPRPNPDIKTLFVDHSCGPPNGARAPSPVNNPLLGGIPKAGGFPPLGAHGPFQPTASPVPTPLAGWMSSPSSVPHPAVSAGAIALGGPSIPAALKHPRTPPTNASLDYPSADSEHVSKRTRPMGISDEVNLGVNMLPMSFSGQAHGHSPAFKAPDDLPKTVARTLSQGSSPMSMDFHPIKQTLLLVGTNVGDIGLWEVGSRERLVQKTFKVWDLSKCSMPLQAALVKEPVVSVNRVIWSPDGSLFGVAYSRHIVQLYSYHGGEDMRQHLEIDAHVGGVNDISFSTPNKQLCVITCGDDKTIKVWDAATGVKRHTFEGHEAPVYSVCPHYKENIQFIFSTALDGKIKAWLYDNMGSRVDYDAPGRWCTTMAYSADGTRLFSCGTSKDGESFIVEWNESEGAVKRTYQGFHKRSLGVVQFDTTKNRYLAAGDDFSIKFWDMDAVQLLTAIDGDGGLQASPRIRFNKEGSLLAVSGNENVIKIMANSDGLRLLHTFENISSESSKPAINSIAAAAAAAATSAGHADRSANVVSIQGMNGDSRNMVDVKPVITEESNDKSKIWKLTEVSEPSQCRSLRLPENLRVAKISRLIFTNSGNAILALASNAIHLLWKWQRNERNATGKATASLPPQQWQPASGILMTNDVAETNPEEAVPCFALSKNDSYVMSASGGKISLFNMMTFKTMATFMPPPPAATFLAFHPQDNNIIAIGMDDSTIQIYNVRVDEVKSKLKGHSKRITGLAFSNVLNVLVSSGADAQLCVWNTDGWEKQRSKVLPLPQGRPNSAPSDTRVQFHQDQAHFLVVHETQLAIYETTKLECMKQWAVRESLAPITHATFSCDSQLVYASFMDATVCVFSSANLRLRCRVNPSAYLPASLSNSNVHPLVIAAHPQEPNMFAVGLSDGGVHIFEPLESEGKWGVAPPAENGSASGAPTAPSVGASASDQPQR
# T2: WOX5-mV(N) BRAVO-mV(C) heterodimer (BiFC donor) (Arabidopsis thaliana, UniProt Q8H1D2 1-182; Q6R053 1-323)
# T2 construct: WUSCHEL-RELATED HOMEOBOX 5 (WOX5) of Arabidopsis thaliana; the CDS, described in Burkart et al, 2022; BRAVO, R2R3-MYB transcription factor of Arabidopsis thaliana; the CDS amplified from cDNA; also called WOX5-mV(N) and BRAVO-mV(C); source: N. benthamiana leaf cells, transiently co-expressed, in cells
# T2 sequence (looked up) 1: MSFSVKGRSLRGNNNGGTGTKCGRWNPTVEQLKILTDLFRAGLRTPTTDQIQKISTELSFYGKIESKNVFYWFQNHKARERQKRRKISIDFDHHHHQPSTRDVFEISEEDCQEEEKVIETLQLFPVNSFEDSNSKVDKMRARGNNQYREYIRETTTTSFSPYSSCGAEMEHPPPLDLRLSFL
# T2 sequence (looked up) 2: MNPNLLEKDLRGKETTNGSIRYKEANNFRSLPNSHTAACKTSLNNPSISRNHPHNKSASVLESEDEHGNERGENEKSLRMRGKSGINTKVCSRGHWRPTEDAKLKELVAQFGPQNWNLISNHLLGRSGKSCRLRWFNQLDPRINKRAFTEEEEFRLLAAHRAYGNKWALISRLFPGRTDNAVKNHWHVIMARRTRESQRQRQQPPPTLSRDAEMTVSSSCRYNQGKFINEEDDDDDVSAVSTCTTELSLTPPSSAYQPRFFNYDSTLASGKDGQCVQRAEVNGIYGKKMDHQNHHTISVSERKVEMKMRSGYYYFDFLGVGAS
# B1: PLT3-mCherry (PLETHORA 3) (natural protein, Arabidopsis thaliana, UniProt Q52QU2 1-581, looked up)
# chain: MMAPMTNWLTFSLSPMEMLRSSDQSQFVSYDASSAASSSPYLLDNFYGWSNQKPQEFFKEEAQLAAAASMADSTILTTFVDPQSHHSQNHIPKLEDFLGDSSSIVRYSDNSQTDTQDSSLTQIYDPRHHHNQTGFYSDHHDFKTMAGFQSAFSTNSGSEVDDSASIGRTHLAGDYLGHVVESSGPELGFHGGSTGALSLGVNVNNNTNHRNDNDNHYRGNNNGERINNNNNNDNEKTDSEKEKAVVAVETSDCSNKKIADTFGQRTSIYRGVTRHRWTGRYEAHLWDNSCRREGQARKGRQGGYDKEDKAARAYDLAALKYWNATATTNFPITNYSKEVEEMKHMTKQEFIASLRRKSSGFSRGASIYRGVTRHHQQGRWQARIGRVAGNKDLYLGTFATEEEAAEAYDIAAIKFRGINAVTNFEMNRYDVEAIMKSALPIGGAAKRLKLSLEAAASSEQKPILGHHQLHHFQQQQQQQQLQLQSSPNHSSINFALCPNSAVQSQQIIPCGIPFEAAALYHHHQQQQQHQQQQQQQNFFQHFPANAASDSTGSNNNSNVQGTMGLMAPNPAEFFLWPNQSY
# notes: PLETHORA 3 (PLT3), APETALA2-type transcription factor of Arabidopsis thaliana; CDS and construct described in Burkart et al, 2022; FRET acceptor; construct XVE:PLT3-mCherry of Burkart et al, 2022; also called full-length PLT3; source: N. benthamiana abaxial epidermal leaf cells, transiently expressed (β-estradiol inducible), in cells
# What was measured:
# [1] = target: BES1D-mVenus (Arabidopsis thaliana) (UniProt Q9LN63); test: FRET or BRET; FRET-FLIM in nuclei of transiently expressing N. benthamiana epidermal leaf cells; mVenus fusion as donor, mCherry fusion as acceptor; 'binding' [%] is the amplitude of the FRET component (number of donor molecules undergoing FRET); binding cutoff 10%; a binding not significantly different from the negative control (mCherry-NLS) is regarded as no interaction
# Sequence of BES1D-mVenus (Arabidopsis thaliana) (Q9LN63 whole entry, the tested form may be a part): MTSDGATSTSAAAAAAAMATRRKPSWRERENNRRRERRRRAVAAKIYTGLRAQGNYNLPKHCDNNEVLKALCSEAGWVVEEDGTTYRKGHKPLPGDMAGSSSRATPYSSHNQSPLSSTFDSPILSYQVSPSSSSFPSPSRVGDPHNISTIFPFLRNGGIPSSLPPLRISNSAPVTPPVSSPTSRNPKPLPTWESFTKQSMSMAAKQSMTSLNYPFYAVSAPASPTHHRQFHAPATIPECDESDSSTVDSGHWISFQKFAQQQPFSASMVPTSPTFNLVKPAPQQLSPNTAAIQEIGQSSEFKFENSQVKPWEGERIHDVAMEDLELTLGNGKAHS
# TPL-mVenus = target: T1, TPL-mVenus; test: as above; conditions: partners not purified
# [2] = target: T2, WOX5-mV(N) BRAVO-mV(C) heterodimer …; test: split reporter (BiFC, NanoBiT) + FRET or BRET; BiFC-FRET-FLIM in nuclei of N. benthamiana epidermal leaf cells; mVenus donor split into mV(N) and mV(C) on two proteins, third protein with mCherry as acceptor; 'binding' [%]; binding cutoff 10%; conditions: partners not purified
binder,measurement,setting,value
B1,"binding (FRET-FLIM, share of donor molecules undergoing FRET)",[1],16.9%
same,"binding (FRET-FLIM, share of donor molecules undergoing FRET)",TPL-mVenus,13.5 ± 4.3%
same,"binding (FRET-FLIM, share of donor molecules undergoing FRET)",[2],31.5 ± 8.5%
